# Target: BSA (UniProt P02769 25-607)
# Assay: ELISA, antigen coated at 200 ng per well
# Sequence of BSA (P02769 25-607 limits assumed): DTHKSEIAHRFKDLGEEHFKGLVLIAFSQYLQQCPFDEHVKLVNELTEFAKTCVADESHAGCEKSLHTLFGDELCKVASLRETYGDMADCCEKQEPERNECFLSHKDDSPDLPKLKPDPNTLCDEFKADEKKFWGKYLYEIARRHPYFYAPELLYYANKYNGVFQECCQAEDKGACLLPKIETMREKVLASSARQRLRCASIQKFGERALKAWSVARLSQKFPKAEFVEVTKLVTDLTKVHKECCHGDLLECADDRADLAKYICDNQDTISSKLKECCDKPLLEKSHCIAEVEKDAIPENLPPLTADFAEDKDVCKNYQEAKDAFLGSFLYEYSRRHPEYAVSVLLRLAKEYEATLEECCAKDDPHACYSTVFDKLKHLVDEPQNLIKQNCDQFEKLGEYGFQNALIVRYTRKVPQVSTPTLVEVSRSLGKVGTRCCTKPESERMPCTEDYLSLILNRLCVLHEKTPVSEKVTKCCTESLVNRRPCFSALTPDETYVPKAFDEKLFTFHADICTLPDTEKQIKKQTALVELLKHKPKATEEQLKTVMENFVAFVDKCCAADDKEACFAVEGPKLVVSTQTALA
row,binding result,Binder
1,no binding (tested: 0.2 µg per well),"HER2-10-hFc (Fc fusion, VHH gene cloned into pABG1-Fc (human Fc fragment), expressed in FreeStyle 293-F cells, Protein A purified; also called HER2-10-Fc; not shown: human Fc fragment of vector pABG1-Fc) QVQLQESGGGLVQPGGSLRLSCTAARNIFGRNVMGWFRQAPGKQREFVAHITGGSAVIYATSVKGRFTISRDNAKNTVYLQMNNLTLDDTAVYFCRAVNDDLWGQGTQVTVSS"
2,no binding (tested: 0.2 µg per well),"HER2-3-hFc (Fc fusion, VHH gene cloned into pABG1-Fc (human Fc fragment), expressed in FreeStyle 293-F cells, Protein A purified; also called HER2-3-Fc; not shown: human Fc fragment of vector pABG1-Fc) QVQLQESGGGLVQAGDSLRLSCAASGLTFSTVGMGWFRQVLGMEREPVAGISWTGNVIGYAESVTGRFTISRDSAKNTVYLQMNSLKPEDTAVYYCAARRRGMSSYDYWGQGTQVTVSS"
3,no binding (tested: 0.2 µg per well),"HER2-11-hFc (Fc fusion, VHH gene cloned into pABG1-Fc (human Fc fragment), expressed in FreeStyle 293-F cells, Protein A purified; also called HER2-11-Fc; not shown: human Fc fragment of vector pABG1-Fc) QVQLQESGGGLVQAGGSLRLSCAASGHTVSRNMMGWFRQAPGKEREFVSAIAWNGEDTYYAESVEGRFTISKDNVKNTIYLQMNSLKPEDTAVYYCAASLFRLWNSATAGNNRVYHYWGQGTQVTVSS"
4,no binding (tested: 0.2 µg per well),"HER2-8-hFc (Fc fusion, VHH gene cloned into pABG1-Fc (human Fc fragment), expressed in FreeStyle 293-F cells, Protein A purified; also called HER2-8-Fc; not shown: human Fc fragment of vector pABG1-Fc) QVQLQESGGGLVQAGGSLRLSCAASGRTFSGAGVGWFRQDPEKEREFVAAIAWSGGSTRYADSVKGRFTISRDNTENTVFLQMNNLRPEDTAVYYCAATRRFYSGLTYTQRDVYDNWGQGTQVTVSS"

# Reference: EP4748860A1 (Kanglitai Biomedical (Qingdao) Co., Ltd., dated 2026)
